B1: WT His6-MutL, full length [E. coli] / WT MutS, full length [E. coli] (parent)
chain 1: MPIQVLPPQLANQIAAGEVVERPASVVKELVENSLDAGATRIDIDIERGGAKLIRIRDNGCGIKKDELALALARHATSKIASLDDLEAIISLGFRGEALASISSVSRLTLTSRTAEQQEAWQAYAEGRDMNVTVKPAAHPVGTTLEVLDLFYNTPARRKFLRTEKTEFNHIDEIIRRIALARFDVTINLSHNGKIVRQYRAVPEGGQKERRLGAICGTAFLEQALAIEWQHGDLTLRGWVADPNHTTPALAEIQYCYVNGRMMRDRLINHAIRQACEDKLGADQQPAFVLYLEIDPHQVDVNVHPAKHEVRFHQSRLVHDFIYQGVLSVLQQQLETPLPLDDEPQPAPRSIPENRVAAGRNHFAEPAAREPVAPRYTPAPASGSRPAAPWPNAQPGYQKQQGEVYRQLLQTPAPMQKLKAPEPQEPALAANSQSFGRVLTIVHSDCALLERDGNISLLSLPVAERWLRQAQLTPGEAPVCAQPLLIPLRLKVSAEEKSALEKAQSALAELGIDFQSDAQHVTIRAVPLPLRQQNLQILIPELIGYLAKQSVFEPGNIAQWIARNLMSEHAQWSMAQAITLLADVERLCPQLVKTPPGGLLQSVDLHPAIKALKDE
chain 2: MSAIENFDAHTPMMQQYLRLKAQHPEILLFYRMGDFYELFYDDAKRASQLLDISLTKRGASAGEPIPMAGIPYHAVENYLAKLVNQGESVAICEQIGDPATSKGPVERKVVRIVTPGTISDEALLQERQDNLLAAIWQDSKGFGYATLDISSGRFRLSEPADRETMAAELQRTNPAELLYAEDFAEMSLIEGRRGLRRRPLWEFEIDTARQQLNLQFGTRDLVGFGVENAPRGLCAAGCLLQYAKDTQRTTLPHIRSITMEREQDSIIMDAATRRNLEITQNLAGGAENTLASVLDCTVTPMGSRMLKRWLHMPVRDTRVLLERQQTIGALQDFTAGLQPVLRQVGDLERILARLALRTARPRDLARMRHAFQQLPELRAQLETVDSAPVQALREKMGEFAELRDLLERAIIDTPPVLVRDGGVIASGYNEELDEWRALADGATDYLERLEVRERERTGLDTLKVGFNAVHGYYIQISRGQSHLAPINYMRRQTLKNAERYIIPELKEYEDKVLTSKGKALALEKQLYEELFDLLLPHLEALQQSASALAELDVLVNLAERAYTLNYTCPTFIDKPGIRITEGRHPVVEQVLNEPFIANPLNLSPQRRMLIITGPNMGGKSTYMRQTALIALMAYIGSYVPAQKVEIGPIDRIFTRVGAADDLASGRSTFMVEMTETANILHNATEYSLVLMDEIGRGTSTYDGLSLAWACAENLANKIKALTLFATHYFELTQLPEKMEGVANVHLDALEHGDTIAFMHSVQDGAASKSYGLAVAALAGVPKEVIKRARQKLRELESISPNAAATQVDGTQMSLLSVPEETSPAVEALENLDPDSLTPRQALEWIYRLKSLV

Variants of: B1
Assay: SPR
Conditions: with WT MutS, MutS sliding clamps pre-formed on 100-bp end-blocked DNA in the presence of ATP, value read at the highest MutL concentration (last point, est. about 5,000 …), read off a plot

Row | Variant | response
1 | chain 1 R55D R57D A138E H139A | -1%
2 | chain 1 A138E H139A | 3%
3 | chain 1 R55D R57D | -7%

The next lines start with the values.

Row | response | Variant
4 | 11% | chain 1 A138E
5 | 13% | chain 1 K52C

Same assay, conditions: with WT His6-MutL, MutS sliding clamps pre-formed on 100-bp end-blocked DNA in the presence of ATP, value read at the highest MutL concentration (last point, est. about 5,000 …), read off a plot

Row | Variant | response
6 | chain 2 P595A I597A M759D | 8%
